Experimental data as given in publication PMC10912661 (Scientific Reports, 2024).

Experiments:
Settings in all cases: both partners purified
[1] = molecular target: human hemoglobin purified from donor blood (carboxyhemoglobin form, for crystallography) (human, UniProt P69905 1-142; P68871 1-147); assay: crystal structure
[2] = molecular target: T1, β-chain of human hemoglobin (in the Hb tetramer of the crystal) (human, UniProt P68871 1-147); assay: crystal structure
T1 construct: also called β-chain of Hb; chain ß; source: purified from human blood of a single healthy donor, as part of Hb
T1 sequence (P68871 whole entry): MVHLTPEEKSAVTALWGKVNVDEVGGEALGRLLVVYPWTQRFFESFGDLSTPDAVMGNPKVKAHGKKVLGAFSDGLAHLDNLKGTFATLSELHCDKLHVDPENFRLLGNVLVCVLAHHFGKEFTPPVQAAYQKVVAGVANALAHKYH

[3] = molecular target: T2, human hemoglobin (bought powder, gel-filtered, for in vitro assays) (human, UniProt P69905 1-142; P68871 1-147); assay: SPR
T2 sequence (P69905 whole entry, chain 1 of 2): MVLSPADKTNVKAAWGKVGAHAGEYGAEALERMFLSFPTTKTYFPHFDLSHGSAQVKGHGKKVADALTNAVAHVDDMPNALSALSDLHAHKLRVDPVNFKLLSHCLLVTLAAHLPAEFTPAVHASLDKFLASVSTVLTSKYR
T2 sequence (P68871 whole entry, chain 2 of 2): as the sequence (P68871 whole entry) above

[4] = molecular target: T2, human hemoglobin (bought powder, …); assay: SPR; remark: listed apart in the source

human hemoglobin purified from donor blood (carboxyhemoglobin form, for crystallography), sequence (P69905 whole entry, chain 1 of 2): as the sequence (P69905 whole entry, chain 1 of 2) above
human hemoglobin purified from donor blood (carboxyhemoglobin form, for crystallography), sequence (P68871 whole entry, chain 2 of 2): as the sequence (P68871 whole entry) above

B1: hemoglobin-interacting domain 2 (HID2) of Shr, residues 169-294, wild type (domain or fragment)
chain: SGKNTANLSLITKLSQEDGAILFPEIDRYSDNKQIKALTQQITKVTVNGTVYKDLISDSVKDTNGWVSNMTGLHLGTKAFKDGENTIVISSKGFEDVTITVTKKDGQIHFVSAKQKQHVTAEDRQS
notes: also called WT; WT HID2; source: E. coli BL21(DE3), pET28b, purified (Ni-NTA, TEV cleavage, second Ni column, SEC Superdex-75)
For B1, which “stoichiometry N” value [1] is on record?
The value was 3 HID2 per Hb tetramer.

Does B1 bind [2]?
Result: binds

What about the Kd [3] of the same binder?
The Kd was 25 µM.

And the Kd [4]?
Its Kd is 22 ± 0.12 µM.

What about the koff [4] of the same binder?
The koff was 0.65 ± 0.025 s⁻¹.

What about the kon [4] of the same binder?
The kon was 30000 ± 160 M⁻¹ s⁻¹.
